Positions count from the first letter of the chain named.
B1: Mutation 3 (antibody, mouse IgG2b, kappa, V domains shown)
VH: QVQLQQPGAELVRPGASVKLSCKASGSSFTNYWMNWVKQRPGQGLEWIGMINPSESETRINQKFKDKATLTVDKSSSTAYMQLSSLTAEDSAVYYCAKSGDFYTSYFDYWGQGTTLTVSS
VL: DIQLTQSPASLSASVGETVTITCRGSGNLHNYIAWYQQKQGKSPQLLVYNARTIADGVPSRFSGSGSGTQYSLKINSLQPEDFGSYYCQSFWSTYTFGGGTKLEIKR
B2: Mutation 2 (antibody, mouse IgG2b, kappa, V domains shown)
VH: B1 VH with W33F, N52H
VL: B1 VL with I33L, T94S
B3: anti-Pan-PLDH 9G7 monoclonal antibody (antibody, mouse IgG2b, kappa, V domains shown)
VH: B1 VH with W33F, F107W
VL: B1 VL with T94S
B4: Mutation 1 (antibody, mouse IgG2b, kappa, V domains shown)
VH: B1 VH with N52H
VL: B1 VL with I33L
B5: Mutation 4 (antibody, mouse IgG2b, kappa, V domains shown)
VH: B1 VH with W33F, N52H, F107W
VL: B1 VL
B6: Mutation 1-45 (antibody, mouse IgG2b, kappa, V domains shown)
VH: B1 VH with S27Y, N52H, K98R, D101E, S105Y
VL: B1 VL with L29V, I33L
B7: Mutation 1-39 (antibody, mouse IgG2b, kappa, V domains shown)
VH: B1 VH with N52H, D101E
VL: B1 VL with S26T, L29V, I33L, I54V, S90Y
B8: Mutation 1-35 (antibody, mouse IgG2b, kappa, V domains shown)
VH: B1 VH with N52H, I60V, K98R, D101E, S105T
VL: B1 VL with I33L, S90Y
B9: Mutation 1-37 (antibody, mouse IgG2b, kappa, V domains shown)
VH: B1 VH with N52H, E55D, I60L, S105Y
VL: B1 VL with S26T, I33L, R52K, S90Y
B10: WT 1-2 (antibody, mouse IgG2b, kappa, V domains shown)
VH: B1 VH with S27Y, W33F, E55D, I60V, K98R, S105T, F107W
VL: B1 VL with S26T, L29V, R52K, S90Y, T94S
B11: Mutation 1-50 (antibody, mouse IgG2b, kappa, V domains shown)
VH: B1 VH with S27T, N52H, E55D, I60V, D101E
VL: B1 VL with L29V, I33L, R52K
B12: WT 1-5 (antibody, mouse IgG2b, kappa, V domains shown)
VH: B1 VH with S27Y, W33F, I60V, D101E, S105T, F107W
VL: B1 VL with S26T, L29I, I54L, T94S
B13: Mutation 1-55 (antibody, mouse IgG2b, kappa, V domains shown)
VH: B1 VH with S27Y, N52H, E55D, I60L, K98R, S105T
VL: B1 VL with L29I, I33L, R52K, S90Y
B14: Mutation 1-41 (antibody, mouse IgG2b, kappa, V domains shown)
VH: B1 VH with S27Y, N52H, I60V, D101E, S105T
VL: B1 VL with S26T, L29I, I33L, I54L
B15: WT 1-3 (antibody, mouse IgG2b, kappa, V domains shown)
VH: B1 VH with W33F, K98R, D101E, S105Y, F107W
VL: B1 VL with S26T, I54L, S90T, T94S
B16: WT 1-4 (antibody, mouse IgG2b, kappa, V domains shown)
VH: B1 VH with S27Y, W33F, E55D, I60V, S105T, F107W
VL: B1 VL with L29V, R52K, I54V, S90Y, T94S
B17: Mutation 1-43 (antibody, mouse IgG2b, kappa, V domains shown)
VH: B1 VH with S27T, N52H, E55D, I60L, K98R, S105Y
VL: B1 VL with L29I, I33L, R52K, I54V
B18: Mutation 1-52 (antibody, mouse IgG2b, kappa, V domains shown)
VH: B1 VH with S27Y, N52H, I60L, D101E, S105T
VL: B1 VL with L29I, I33L, I54V
B19: Mutation 1-49 (antibody, mouse IgG2b, kappa, V domains shown)
VH: B1 VH with N52H, E55D, I60L, S105T
VL: B1 VL with S26T, I33L, R52K, I54V, S90T
B20: Mutation 1-53 (antibody, mouse IgG2b, kappa, V domains shown)
VH: B1 VH with N52H, I60V, K98R
VL: B1 VL with S26T, L29I, I33L, S90Y
B21: Mutation 1-38 (antibody, mouse IgG2b, kappa, V domains shown)
VH: B1 VH with S27Y, N52H, E55D, I60V, S105T
VL: B1 VL with L29V, I33L, R52K, I54L, S90T
B22: Mutation 1-42 (antibody, mouse IgG2b, kappa, V domains shown)
VH: B1 VH with S27Y, N52H, E55D, K98R
VL: B1 VL with S26T, L29I, I33L, R52K, S90T
B23: Mutation 1-54 (antibody, mouse IgG2b, kappa, V domains shown)
VH: B1 VH with S27T, N52H, E55D, K98R, S105Y
VL: B1 VL with S26T, L29I, I33L, R52K, I54V
B24: Mutation 1-47 (antibody, mouse IgG2b, kappa, V domains shown)
VH: B1 VH with S27T, N52H, I60V
VL: B1 VL with I33L, I54L, S90T
B25: Mutation 1-44 (antibody, mouse IgG2b, kappa, V domains shown)
VH: B1 VH with N52H, E55D, I60V, K98R, D101E
VL: B1 VL with S26T, L29V, I33L, R52K, I54L, S90Y
B26: Mutation 1-40 (antibody, mouse IgG2b, kappa, V domains shown)
VH: B1 VH with S27T, N52H, I60L, D101E, S105Y
VL: B1 VL with L29I, I33L, S90T
B27: Mutation 1-51 (antibody, mouse IgG2b, kappa, V domains shown)
VH: B1 VH with N52H, D101E, S105Y
VL: B1 VL with S26T, L29V, I33L, I54L, S90T
B28: Mutation 1-48 (antibody, mouse IgG2b, kappa, V domains shown)
VH: B1 VH with S27Y, N52H, E55D, S105Y
VL: B1 VL with I33L, R52K, I54L, S90Y
B29: Mutation 1-36 (antibody, mouse IgG2b, kappa, V domains shown)
VH: B1 VH with S27T, N52H, E55D
VL: B1 VL with I33L, R52K, I54V
B30: WT 1-1 (antibody, mouse IgG2b, kappa, V domains shown)
VH: B1 VH with S27T, W33F, E55D, K98R, F107W
VL: B1 VL with S26T, L29I, R52K, I54L, S90T, T94S
B31: Mutation 1-46 (antibody, mouse IgG2b, kappa, V domains shown)
VH: B1 VH with S27T, N52H, I60L, K98R, D101E, S105T
VL: B1 VL with S26T, I33L, I54V, S90Y

target: Pan-species-specific antigen Plasmodium Lactate DeHydrogenase (Pan-PLDH) protein; experiment: indirect ELISA, recombinant MA protein coated 1 ug/ml, antibody 0.32 ng/ml

Row | Binder | OD value at 450 nm (refer to 630 nm) [OD]
1 | B1 | 0.255
2 | B2 | 0.231
3 | B3 | 0.173
4 | B4 | 0.27
5 | B5 | 0.211

target: Pan-species-specific antigen Plasmodium Lactate DeHydrogenase (Pan-PLDH) protein; experiment: indirect ELISA, recombinant MA protein coated 1 ug/ml, antibody 200 ng/ml

Row | Binder | OD value at 450 nm (refer to 630 nm) [OD]
6 | B1 | 2.14
7 | B2 | 2.14
8 | B3 | 1.82
9 | B4 | 2.19
10 | B5 | 2.03

target: Pan-species-specific antigen Plasmodium Lactate DeHydrogenase (Pan-PLDH) protein; experiment: indirect ELISA, recombinant MA protein coated 1 ug/ml, antibody 0 ng/ml (blank)

Row | Binder | OD value at 450 nm (refer to 630 nm) [OD]
11 | B1 | 0.053
12 | B2 | 0.072
13 | B3 | 0.072
14 | B4 | 0.06
15 | B5 | 0.066

target: Pan-species-specific antigen Plasmodium Lactate DeHydrogenase (Pan-PLDH) protein; experiment: indirect ELISA, recombinant MA protein coated 1 ug/ml, antibody 1000 ng/ml

Row | Binder | OD value at 450 nm (refer to 630 nm) [OD]
16 | B1 | 2.23
17 | B2 | 2.21
18 | B3 | 1.94
19 | B4 | 2.26
20 | B5 | 2.15

target: Pan-species-specific antigen Plasmodium Lactate DeHydrogenase (Pan-PLDH) protein; experiment: indirect ELISA, recombinant MA protein coated 1 ug/ml, antibody 1.6 ng/ml

Row | Binder | OD value at 450 nm (refer to 630 nm) [OD]
21 | B1 | 0.274
22 | B2 | 0.297
23 | B3 | 0.205
24 | B4 | 0.339
25 | B5 | 0.251

target: Pan-species-specific antigen Plasmodium Lactate DeHydrogenase (Pan-PLDH) protein; experiment: indirect ELISA, recombinant MA protein coated 1 ug/ml, antibody 8 ng/ml

Row | Binder | OD value at 450 nm (refer to 630 nm) [OD]
26 | B1 | 1.01
27 | B2 | 1
28 | B3 | 0.635
29 | B4 | 1.1
30 | B5 | 0.939

target: Pan-species-specific antigen Plasmodium Lactate DeHydrogenase (Pan-PLDH) protein; experiment: indirect ELISA at four coating concentrations, KD calculated from half-maximal OD

Row | Binder | Kd [pM]
31 | B6 | 415
32 | B7 | 550
33 | B8 | 424
34 | B9 | 520
35 | B10 | 639
36 | B11 | 87.9
37 | B12 | 516
38 | B13 | 559
39 | B14 | 743
40 | B15 | 485
41 | B16 | 850
42 | B17 | 530
43 | B18 | 659
44 | B3 | 887
45 | B19 | 342
46 | B20 | 717
47 | B21 | 613
48 | B22 | 545
49 | B23 | 633
50 | B24 | 454
51 | B25 | 318
52 | B26 | 439
53 | B4 | 412
54 | B27 | 526
55 | B28 | 336
56 | B29 | 518
57 | B30 | 759
58 | B31 | 332

target: Pan-species-specific antigen Plasmodium Lactate DeHydrogenase (Pan-PLDH) protein; experiment: indirect ELISA, recombinant MA protein coated 1 ug/ml, antibody 40 ng/ml

Row | Binder | OD value at 450 nm (refer to 630 nm) [OD]
59 | B1 | 2.01
60 | B2 | 1.98
61 | B3 | 1.43
62 | B4 | 2.02
63 | B5 | 1.92
